{
  "source": "patent US20210292396A1",
  "about": "(INTERNATIONAL AIDS VACCINE INITIATIVE, published 2021)",
  "assay_in_all_cases": "cell-based or functional assay",
  "key": {"[1]": {"target": "HIV Env of isolate T250-4 (HIV)"}, "[2]": {"target": "HIV Env of isolate X1193_c1 (HIV)"}, "[3]": {"target": "HIV Env of isolate 3817.v2.c59 (HIV)"}, "[4]": {"target": "HIV Env of isolate 6480.v4.c25 (HIV)"}, "[5]": {"target": "HIV Env of isolate T211-9 (HIV)"}, "[6]": {"target": "HIV Env of isolate P0402_C2_11 (HIV)"}, "[7]": {"target": "HIV Env of isolate SC422661.8 (HIV)"}, "HIV Env of isolate PVO.4": {"target": "HIV Env of isolate PVO.4 (HIV)"}, "[8]": {"target": "HIV Env of isolate TRO.11 (HIV)"}, "[9]": {"target": "HIV Env of isolate AC10.0.29 (HIV)"}, "[10]": {"target": "HIV Env of isolate 1006_11_C3_1601 (HIV)"}, "[11]": {"target": "HIV Env of isolate 1054_07_TC4_1499 (HIV)"}, "[12]": {"target": "HIV Env of isolate 1056_10_TA11_1826 (HIV)"}, "[13]": {"target": "HIV Env of isolate 1012_11_TC21_3257 (HIV)"}, "[14]": {"target": "HIV Env of isolate Du156.12 (HIV)"}, "[15]": {"target": "HIV Env of isolate ZM214M.PL15 (HIV)"}, "[16]": {"target": "HIV Env of isolate CAP45.2.00.G3 (HIV)"}, "[17]": {"target": "HIV Env of isolate CAP210.2.00.E8 (HIV)"}, "[18]": {"target": "HIV Env of isolate HIV-001428-2.42 (HIV)"}, "[19]": {"target": "HIV Env of isolate HIV-16845-2.22 (HIV)"}, "[20]": {"target": "HIV Env of isolate Ce1176_A3 (HIV)"}, "HIV Env of isolate CNE20": {"target": "HIV Env of isolate CNE20 (HIV)"}, "HIV Env of isolate CNE52": {"target": "HIV Env of isolate CNE52 (HIV)"}, "[21]": {"target": "HIV Env of isolate 928-28 (HIV)"}, "[22]": {"target": "HIV Env of isolate 620345.c01 (HIV)"}, "[23]": {"target": "HIV Env of isolate R2184.c04 (HIV)"}, "[24]": {"target": "HIV Env of isolate R3265.c06 (HIV)"}, "[25]": {"target": "HIV Env of isolate C4118.c09 (HIV)"}, "[26]": {"target": "HIV Env of isolate X1254_c3 (HIV)"}, "[27]": {"target": "HIV Env of isolate P1981_C5_3 (HIV)"}, "[28]": {"target": "HIV Env of isolate 6480.v4.c25 (HIV)", "remark": "listed apart in the source"}, "[29]": {"target": "HIV Env of isolate 6041.v3.c23 (HIV)"}, "[30]": {"target": "HIV Env of isolate TRJO4551.58 (HIV)"}, "[31]": {"target": "HIV Env of isolate WITO4160.33 (HIV)"}, "[32]": {"target": "HIV Env of isolate 1054_07_TC4_1499 (HIV)", "remark": "listed apart in the source"}, "[33]": {"target": "HIV Env of isolate 1056_10_TA11_1826 (HIV)", "remark": "listed apart in the source"}, "[34]": {"target": "HIV Env of isolate 1012_11_TC21_3257 (HIV)", "remark": "listed apart in the source"}, "[35]": {"target": "HIV Env of isolate Du172.17 (HIV)"}, "[36]": {"target": "HIV Env of isolate Du422.1 (HIV)"}, "[37]": {"target": "HIV Env of isolate ZM197M.PB7 (HIV)"}, "[38]": {"target": "HIV Env of isolate HIV-16845-2.22 (HIV)", "remark": "listed apart in the source"}, "[39]": {"target": "HIV Env of isolate Ce703010054_2A2 (HIV)"}, "[40]": {"target": "HIV Env of isolate BF1266.431a (HIV)"}, "HIV Env of isolate CNE58": {"target": "HIV Env of isolate CNE58 (HIV)"}, "[41]": {"target": "HIV Env of isolate 191955_A11 (HIV)"}},
  "data": [
    {"binder": "ePGT121.15.H6.L1 (antibody, V domains shown) VH: QMQLQESGPGLVKPGETLSLTCSVSGASISSSYWSWLRETPGKGLEWIGYTHHSGDTNYAPSLKSRVHLGLHPSKNQVSLSLTSVTAADTAVYYCARTLHGRRIYGVVAFNEFFTYFYWEVWGKGTQVTVSS VL: SDISVAPGETVRISCGGESIGSRAVQWYQHRAGQAPKLIIYNNQDRPPGIPERFSGSPDIDFGTTATLTITNVEAGDEATYYCHIWDSRRPTNWVFGGGTTLTVL", "values": [
      {"measurement": "neutralization (Table 6 value)", "setting": "[1]", "result": 0.000789},
      {"measurement": "neutralization (Table 6 value)", "setting": "[2]", "result": 0.000518},
      {"measurement": "neutralization (Table 6 value)", "setting": "[3]", "result": 0.00361},
      {"measurement": "neutralization (Table 6 value)", "setting": "[4]", "result": 0.000826},
      {"measurement": "neutralization (Table 6 value)", "setting": "[5]", "result": 0.00751},
      {"measurement": "neutralization (Table 6 value)", "setting": "[6]", "result": 0.0015},
      {"measurement": "neutralization (Table 6 value)", "setting": "[7]", "result": 0.00285},
      {"measurement": "neutralization (Table 6 value)", "setting": "HIV Env of isolate PVO.4", "result": 0.00517},
      {"measurement": "neutralization (Table 6 value)", "setting": "[8]", "result": 0.0014},
      {"measurement": "neutralization (Table 6 value)", "setting": "[9]", "result": 0.00278},
      {"measurement": "neutralization (Table 6 value)", "setting": "[10]", "result": 0.00214},
      {"measurement": "neutralization (Table 6 value)", "setting": "[11]", "result": 0.00129},
      {"measurement": "neutralization (Table 6 value)", "setting": "[12]", "result": 0.00186},
      {"measurement": "neutralization (Table 6 value)", "setting": "[13]", "result": 0.00194},
      {"measurement": "neutralization (Table 6 value)", "setting": "[14]", "result": 0.000917},
      {"measurement": "neutralization (Table 6 value)", "setting": "[15]", "result": 0.00993},
      {"measurement": "neutralization (Table 6 value)", "setting": "[16]", "result": "1.8e-05"},
      {"measurement": "neutralization (Table 6 value)", "setting": "[17]", "result": 0.0311},
      {"measurement": "neutralization (Table 6 value)", "setting": "[18]", "result": 0.00181},
      {"measurement": "neutralization (Table 6 value)", "setting": "[19]", "result": 0.0283},
      {"measurement": "neutralization (Table 6 value)", "setting": "[20]", "result": 0.00302},
      {"measurement": "neutralization (Table 6 value)", "setting": "HIV Env of isolate CNE20", "result": 0.00133},
      {"measurement": "neutralization (Table 6 value)", "setting": "HIV Env of isolate CNE52", "result": 0.0784}
    ]},
    {"binder": "PGT-121 (antibody, V domains shown) VH: QMQLQESGPGLVKPSETLSLTCSVSGASISDSYWSWIRRSPGKGLEWIGYVHKSGDTNYSPSLKSRVNLSLDTSKNQVSLSLVAATAADSGKYYCARTLHGRRIYGIVAFNEWFTYFYMDVWGNGTQVTVSS VL: SDISVAPGETARISCGEKSLGSRAVQWYQHRAGQAPSLIIYNNQDRPSGIPERFSGSPDSPFGTTATLTITSVEAGDEADYYCHIWDSRVPTKWVFGGGTTLTVLG", "values": [
      {"measurement": "neutralization IC50", "setting": "[21]", "result": 44.2, "unit": "µg/mL"},
      {"measurement": "neutralization IC50", "setting": "[22]", "result": "> 50", "unit": "µg/mL"},
      {"measurement": "neutralization IC50", "setting": "[23]", "result": "> 50", "unit": "µg/mL"},
      {"measurement": "neutralization IC50", "setting": "[24]", "result": "> 50", "unit": "µg/mL"},
      {"measurement": "neutralization IC50", "setting": "[25]", "result": "> 50", "unit": "µg/mL"},
      {"measurement": "neutralization IC50", "setting": "[26]", "result": 0.014, "unit": "µg/mL"},
      {"measurement": "neutralization IC50", "setting": "[27]", "result": 0.001, "unit": "µg/mL"},
      {"measurement": "neutralization IC50", "setting": "[28]", "result": 0.001, "unit": "µg/mL"},
      {"measurement": "neutralization IC50", "setting": "[29]", "result": "> 50", "unit": "µg/mL"},
      {"measurement": "neutralization IC50", "setting": "[30]", "result": 1.31, "unit": "µg/mL"},
      {"measurement": "neutralization IC50", "setting": "[31]", "result": 0.334, "unit": "µg/mL"},
      {"measurement": "neutralization IC50", "setting": "[32]", "result": 0.064, "unit": "µg/mL"},
      {"measurement": "neutralization IC50", "setting": "[33]", "result": 0.004, "unit": "µg/mL"},
      {"measurement": "neutralization IC50", "setting": "[34]", "result": 0.003, "unit": "µg/mL"},
      {"measurement": "neutralization IC50", "setting": "[35]", "result": 0.033, "unit": "µg/mL"},
      {"measurement": "neutralization IC50", "setting": "[36]", "result": 0.039, "unit": "µg/mL"},
      {"measurement": "neutralization IC50", "setting": "[37]", "result": "> 50", "unit": "µg/mL"},
      {"measurement": "neutralization IC50", "setting": "[38]", "result": 3.97, "unit": "µg/mL"},
      {"measurement": "neutralization IC50", "setting": "[39]", "result": "> 50", "unit": "µg/mL"},
      {"measurement": "neutralization IC50", "setting": "[40]", "result": "> 50", "unit": "µg/mL"},
      {"measurement": "neutralization IC50", "setting": "HIV Env of isolate CNE58", "result": "> 50", "unit": "µg/mL"},
      {"measurement": "neutralization IC50", "setting": "[41]", "result": "> 50", "unit": "µg/mL"},
      {"measurement": "neutralization (Table 6 value)", "setting": "[1]", "result": 0.00021},
      {"measurement": "neutralization (Table 6 value)", "setting": "[2]", "result": 0.000417},
      {"measurement": "neutralization (Table 6 value)", "setting": "[3]", "result": 0.00949},
      {"measurement": "neutralization (Table 6 value)", "setting": "[4]", "result": 0.000306},
      {"measurement": "neutralization (Table 6 value)", "setting": "[5]", "result": 0.891},
      {"measurement": "neutralization (Table 6 value)", "setting": "[6]", "result": 0.000423},
      {"measurement": "neutralization (Table 6 value)", "setting": "[7]", "result": 0.0272},
      {"measurement": "neutralization (Table 6 value)", "setting": "HIV Env of isolate PVO.4", "result": 0.115},
      {"measurement": "neutralization (Table 6 value)", "setting": "[8]", "result": 0.00843},
      {"measurement": "neutralization (Table 6 value)", "setting": "[9]", "result": 0.029},
      {"measurement": "neutralization (Table 6 value)", "setting": "[10]", "result": 0.00382},
      {"measurement": "neutralization (Table 6 value)", "setting": "[11]", "result": 0.0334},
      {"measurement": "neutralization (Table 6 value)", "setting": "[12]", "result": 0.0162},
      {"measurement": "neutralization (Table 6 value)", "setting": "[13]", "result": 0.00917},
      {"measurement": "neutralization (Table 6 value)", "setting": "[14]", "result": 0.00534},
      {"measurement": "neutralization (Table 6 value)", "setting": "[15]", "result": 0.119},
      {"measurement": "neutralization (Table 6 value)", "setting": "[16]", "result": 0.0713},
      {"measurement": "neutralization (Table 6 value)", "setting": "[17]", "result": 0.618},
      {"measurement": "neutralization (Table 6 value)", "setting": "[18]", "result": 0.0111},
      {"measurement": "neutralization (Table 6 value)", "setting": "[19]", "result": 0.25},
      {"measurement": "neutralization (Table 6 value)", "setting": "[20]", "result": 0.00882},
      {"measurement": "neutralization (Table 6 value)", "setting": "HIV Env of isolate CNE20", "result": 0.00147},
      {"measurement": "neutralization (Table 6 value)", "setting": "HIV Env of isolate CNE52", "result": 1.94}
    ]}
  ]
}
